Laboratory results: patent publication US11414454B2, “Compositions, methods, and systems for affinity-based protein identification and purification” (Auctus Biologies, Inc., priority 2017, dated 2022)

How the values were obtained:
[1] = system: rhodamine labeled RPtag (small); test: Sequential boiling/recovery trials, fraction binding of RPtag (large); design: species or system Thermoanaerobacter tengcongensis
Procedure: The ability of the disclosed proteins and peptides to function after being subjected to thermal stress was also tested. Here again the RPtag (large) and anti-6×His antibody were selected for analysis. Briefly, the RPtag(large) or the anti-6×His antibody was subjected to sequential rounds of boiling and recovery. Specifically, the proteins were subjected to sequential rounds of: 5 min boiling in buffer, followed by recovery for 1 min on ice. After each round of boiling/recovery, the proteins were assayed for binding to their corresponding epitopes and the results plotted.
RPtag (large) and an the anti-His tag antibody (4E3D10H2/E3 purchased from ThermoFisher Scientific) were placed in a solution at about 0.1-1 μM [final] in a buffer of 50 mM Tris pH 8.0, 0.005% Tween20. The protein solutions were repeatedly heated for 5 min at 95° C. and then recovered on ice for 1 min. After each round of heating/cooling, an aliquot was taken and diluted to 100 nM, and incubated with 100 nM either rhodamine labeled RPtag (small) or rhodamine labeled 6x-His peptide (sequence: Rhodamine-GHHHHHH), and the fluorescence anisotropy measured. Fraction binding was calculated via the equation F=(r−rmin)/(r0−rmin) where F is the fraction binding, r is the measured anisotropy, rmin is the anisotropy in the absence of binding protein, and r0 is the anisotropy before any boiling trials.

RPtag(small) (Nd2Cd4) = test: Fluorescence anisotropy Kd of RPtag(large) variants for control RPtag(small) peptide Nd2Cd4; type: binding, Thermoanaerobacter tengcongensis; conditions: 2 nM rhodamine labeled Nd2Cd4
Procedure: An initial Kd was measured between RPtag(large) and the PDGF-β N-terminal peptide (FIG. 16). […] Next, competition experiments were performed using the mutant RPtag(small) peptide Nd2,P5A,E18A.
Kds were measured by incubating increasing concentrations of unlabeled RPtag large mutant with either 20 nM rhodamine labeled PDGF-β n-terminal peptide or 2 nM rhodamine labeled Nd2Cd4 variant of RPtag small, as it has the same number of amino acids as the PDGF-β peptide but contains the native binding sequence. After the incubation, fluorescence anisotropy was measured, and the resultant curves were fit with the equation f=y0+(ymax−y0)*(Ptot+x+Kd−sqrt((Ptot+x+Kd)^2−4*Ptot*x))/(2*Ptot), where y0 is the baseline anisotropy, ymax is the maximum anisotropy, Ptot is the fixed concentration of labeled peptide used, x is the variable concentration of protein used, and Kd is the measured Kd. Data are presented here as Ka=1/Kd. Log transformed Ka's were then compared by one-way ANOVA relative to wt control with Holm-Sidak post hoc correction. ***p<0.001, **p<0.01, *p<0.05. data are mean±SEM (n=3-4). Buffer was 50 mM Tris pH 8.0, 0.005% Tween20. For the sake of comparison, the double mutant h122l,a253a is shown on the same axes, but was not included in the statistical analysis as the experiment was done after the initial results identified the two single mutants.

Chain of rhodamine labeled RPtag (small) (as listed by the source): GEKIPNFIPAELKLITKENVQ

B1: RPtag (large): RB protein fragment a.a. 1-257 from Thermoanaerobacter tengcongensis; SEQ ID NO: 3 with tags and Cys (protein)
chain: MGSSCHHHHHHSQDPNSSSMKEGKTIGLVISTLNNPFFVTLKNGAEEKAKELGYKIIVEDSQNDSSKELSNVEDLIQQKVDVLLINPVDSDAVVTAIKEANSKNIPVITIDRSANGGDVVSHIASDNVKGGEMAAEFIAKALKGKGNVVELEGIPGASAARDRGKGFDEAIAKYPDIKIVAKQAADFDRSKGLSVMENILQAQPKIDAVFAQNDEMALGAIKAIEAANRQGIIVVGFDGTEDALKAIKEGKMAATIAQQPALMGSLGVEMADKYLK
modifications: tags and added Cys
Question: With B1 as the molecule, how does the “stability relative to commercially available products” value [1] read?
Answer: at least 10 fold

Question: What about the Kd (RPtag(small) (Nd2Cd4)) of the same molecule?
Answer: 0.41 nM
